Data: patent US20060134709A1

Tests used:
C1q = assay: BIAcore; 2B6 captured on soluble CD32B (2bLAvi) on a CM-5 chip, C1q injected
[1] = target: soluble FcγRIIIA tetrameric complex (human) (UniProt P08637); assay: FACS titration of tetramer, 1.4 to 0.0006 µM
[2] = target: soluble monomeric FcγRIIIA-linker-AVITAG (human) (UniProt P08637); assay: ELISA
[3] = target: soluble monomeric FcγRIIIA-linker-AVITAG (human) (UniProt P08637); assay: BIAcore: ch4-4-20 captured on BSA-FITC, FcγRIIIA at 200 nM and 800 nM, separate fits, average of the two concentrations
[4] = target: soluble monomeric FcγRIIIA-linker-AVITAG (human) (UniProt P08637); assay: BIAcore
[5] = target: FcγRIIB-Fc fusion protein (human) (UniProt P31994); assay: BIAcore
[6] = target: FcγRIIB-Fc fusion protein (human) (UniProt P31994); assay: BIAcore: ch4-4-20 captured on BSA-FITC, FcγRIIB-Fc at two concentrations, separate fits, average of the two
[7] = target: soluble monomeric FcγRIIIA-linker-AVITAG (human) (UniProt P08637); assay: ELISA of FcγRIIIA binding; OD listed beside the sensorgrams
[8] = target: FcγRIIB-Fc fusion protein (human) (UniProt P31994); assay: ELISA of FcγRIIB-Fc binding; OD listed beside the sensorgrams
[9] = target: FcγRIIB-Fc fusion protein (human) (UniProt P31994); assay: ELISA
[10] = target: FcγRIIB-Fc fusion protein (human) (UniProt P31994); assay: BIAcore; remark: listed apart in the source
monomeric human IgG [11] = assay: ELISA
monomeric human IgG [12] = assay: direct ELISA on plate-coated human IgG, detection with DJ130c and anti-mouse peroxidase

soluble monomeric FcγRIIIA-linker-AVITAG (human), sequence (P08637 17-203 F176V limits assumed, form in doubt): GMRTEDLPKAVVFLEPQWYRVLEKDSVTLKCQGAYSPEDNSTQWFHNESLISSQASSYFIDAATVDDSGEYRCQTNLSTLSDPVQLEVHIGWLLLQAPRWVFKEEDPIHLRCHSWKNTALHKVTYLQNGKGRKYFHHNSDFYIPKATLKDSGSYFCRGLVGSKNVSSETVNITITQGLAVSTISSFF
C1q, sequence (P02745 23-245, chain 1 of 3): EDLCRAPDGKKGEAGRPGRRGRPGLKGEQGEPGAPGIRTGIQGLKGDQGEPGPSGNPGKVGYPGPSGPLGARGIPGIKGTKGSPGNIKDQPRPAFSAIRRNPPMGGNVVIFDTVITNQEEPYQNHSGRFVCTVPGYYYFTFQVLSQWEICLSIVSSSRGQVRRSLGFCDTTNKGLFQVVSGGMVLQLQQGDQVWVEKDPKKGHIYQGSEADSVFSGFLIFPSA
C1q, sequence (P02746 28-253, chain 2 of 3, further chain): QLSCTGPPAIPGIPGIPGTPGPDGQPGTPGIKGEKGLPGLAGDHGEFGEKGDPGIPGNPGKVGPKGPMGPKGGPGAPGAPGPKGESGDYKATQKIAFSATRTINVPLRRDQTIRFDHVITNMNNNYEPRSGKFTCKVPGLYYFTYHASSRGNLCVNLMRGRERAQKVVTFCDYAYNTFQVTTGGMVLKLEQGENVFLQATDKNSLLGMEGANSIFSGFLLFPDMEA
C1q, sequence (P02747 29-245, chain 3 of 3, further chain): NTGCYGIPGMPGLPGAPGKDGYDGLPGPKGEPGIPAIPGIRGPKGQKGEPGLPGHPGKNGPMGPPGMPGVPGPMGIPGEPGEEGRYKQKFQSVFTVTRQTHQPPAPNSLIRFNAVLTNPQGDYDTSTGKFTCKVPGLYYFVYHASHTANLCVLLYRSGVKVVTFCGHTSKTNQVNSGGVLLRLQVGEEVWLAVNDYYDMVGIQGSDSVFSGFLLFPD
FcγRIIB-Fc fusion protein (human), sequence (P31994 43-217): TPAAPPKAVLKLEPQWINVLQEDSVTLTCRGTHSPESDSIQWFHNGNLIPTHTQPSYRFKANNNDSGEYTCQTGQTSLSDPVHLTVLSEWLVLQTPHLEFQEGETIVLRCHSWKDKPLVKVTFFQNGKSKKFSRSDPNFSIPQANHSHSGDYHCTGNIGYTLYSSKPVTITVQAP
soluble FcγRIIIA tetrameric complex (human), sequence (P08637 17-203 F176V limits assumed, form in doubt, one chain of several): as the sequence (P08637 17-203 F176V limits assumed, form in doubt) above

Substance 2B6 (panel FIG. 34B-1) (antibody) has a koff (C1q) of 0.13 s⁻¹.
Substance 2B6 (panel FIG. 34B-2) (antibody) has a Kd (C1q) of 7 nM and a koff (C1q) of 0.06 s⁻¹.
“Aga2p-CH1-CH3 fusion (pYD-CH1), wild type Fc on yeast” was tested, and the Kd [1] was 6 nM.
For ch4-4-20 F243L, R255L (antibody), the fold vs wt [2] was 1 x, the Kd [3] was 91.8 nM and the koff [3] was 0.073 s⁻¹. For the same substance, the Kd [4] was 90 nM, the koff [4] was 0.075 s⁻¹ and the Kd [5] was 74.7 nM. For the same substance, the koff [5] was 0.09 s⁻¹, the Kd [6] was 82.3 nM and the koff [6] was 0.1 s⁻¹. The ELISA, OD [7] was 0.37 OD and the ELISA, OD [8] was 0.1 OD.
Work on ch4-4-20 F372Y (antibody) yielded an ELISA, OD [9] of 1.55 OD, a Kd [3] of 84.8 nM and an ELISA, OD [7] of 1 OD.
ch4-4-20 K246I, K334N (antibody) showed a Kd [10] of 45.3 nM, a Kd [3] of 100 nM and an ELISA, OD [7] of 0.75 OD.
With ch4-4-20 K334E, R292L (antibody) the ELISA, OD [2] was 1.25 OD, the Kd [4] was 70.2 nM and the koff [4] was 0.105 s⁻¹. For the same substance, the kon [4] was 1.43e+06 M⁻¹ s⁻¹, the Kd [5] was 108 nM and the koff [5] was 0.107 s⁻¹. It also gave an ELISA, OD [8] of 0.1 OD.
chimeric 4-4-20 antibody, wild type Fc showed a Kd [10] of 61.4 nM, a koff [10] of 0.085 s⁻¹ and an ELISA, OD [2] of 0.5 OD. It also gave an ELISA, OD [9] of 0.4 OD, a Kd [4] of 198 nM and a Kd [5] of 94 nM. The koff [5] was 0.094 s⁻¹ and the koff [6] was 0.0847 s⁻¹.
Substance “soluble FcγRIIIA tetrameric complex (from UniProt P08637 17-203) (receptor)” has a fold avidity vs monomeric receptor (monomeric human IgG [11]) of 8 to 10 fold and an EC50 (read off the curve) (monomeric human IgG [12]) of 1 µg/mL.
